Source: patent CN113546252A

Target: 人PCSK9-D347Y (human) (UniProt Q8NBP7)
Assay: cell-based or functional assay

| 促LDL内吞 (HepG2细胞LDL摄取法) EC50 [µg/mL] | Substance |
| --- | --- |
| 0.151 | Evolocumab (antibody) |
| 0.0927 | JS002 (antibody) |
